Experimental data taken from article PMC8953729.

Tests used:
[1] = target: Nterm1 (position 1, -----MDHSHH); test: potentiometry
Tyr11 (position 11, …--) = test: potentiometry; details: metal-free peptide

MDHSHHMGMSYMDS
pKa ([1]; 298 K, 0.1 mol dm^-3 (KNO3), mononuclear Ag+ complex ([AgLH2] to [AgLH]), Ag+/peptide ratios 1:1, 1:2 and 2:1): 7.33
pKa ([1]; 298.0 ± 0.2 K, 0.10 M (KNO3), none (titration with 0.1 M KOH under argon), metal-free peptide): 7.63
pKa ([1]; metal-free peptide, cited from earlier work): 7.46
pKa (Tyr11 (position 11, …--); 298.0 ± 0.2 K, 0.10 M (KNO3), none (titration with 0.1 M KOH under argon)): 9.64
pKa (Tyr11 (position 11, …--); cited from earlier work): 9.84
